Experimental data taken from US20240092857A1.

Key:
[1] = tested on: DLK1 extracellular domain (ECD), soluble, exogenously added
Presenilin-1 = Presenilin-1 (UniProt P49768); test: STED microscopy of KG1a-DLK1-GFP cells, 1864 condensates over 10 images
TGFBR1 = TGFBR1 (UniProt P36897); test: STED microscopy of KG1a-DLK1-GFP cells, 3691 condensates over 10 images
Chain of UniProt P36897 (P36897 34-503 limits assumed): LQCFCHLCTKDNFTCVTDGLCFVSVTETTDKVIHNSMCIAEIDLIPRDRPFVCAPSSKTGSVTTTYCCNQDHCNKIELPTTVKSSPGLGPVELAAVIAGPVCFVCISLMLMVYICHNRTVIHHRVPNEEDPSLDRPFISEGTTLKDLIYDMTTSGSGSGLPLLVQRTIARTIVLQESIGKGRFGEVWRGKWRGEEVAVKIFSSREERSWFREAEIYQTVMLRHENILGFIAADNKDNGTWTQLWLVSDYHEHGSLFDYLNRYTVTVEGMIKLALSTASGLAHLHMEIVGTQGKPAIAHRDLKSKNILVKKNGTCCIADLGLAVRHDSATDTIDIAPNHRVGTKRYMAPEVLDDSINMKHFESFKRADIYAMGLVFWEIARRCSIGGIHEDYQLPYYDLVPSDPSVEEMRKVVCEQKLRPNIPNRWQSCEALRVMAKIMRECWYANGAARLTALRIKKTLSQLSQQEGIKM

percent of DLK1 in the PM that overlaps with PSEN1 (co-localization) (Presenilin-1) [%] | percent of PSEN1 that overlaps with DLK1 (co-localization) (Presenilin-1) [%] | percent of DLK1 in the PM that overlaps with TGFBR1 (co-localization) (TGFBR1) [%] | percent of TGFBR1 that overlaps with DLK1 (co-localization) (TGFBR1) [%] | Substance | Notch receptor cleavage, western blot of Notch1 cleaved at Valine 1744 (FIG. 14B) [1]
– | – | – | – | Presenilin-1 | reduces Notch receptor cleavage
80 | 75 | 75 | 75 | full-length DLK1 isoform with a C-terminal fusion to GFP, expressed in KG1a cells (from UniProt P80370 24-383) | –
